Assay results published in paper PMC7144274.

Biological target: soluble MERTK ectodomain (MERTK^ED-His)
Assay: SPR; Biacore T200, room temperature; […]; HBS-EP (10 mM HEPES pH 7.4, 150 mM NaCl, 0.05% Tween 20)

CSFV E2 ectodomain (E2^ED-His) (domain or fragment)
Kd: 1630 nM
